The target in the assay is soluble recombinant human gp39 (CD8-gp39 fusion protein) (murine; human).

“CD40-Ig (modified by L234F, L235E and G237A in the immunoglobulin domain) (from UniProt P25942) (Fc fusion)”: the inhibition of shgp39/IF5 or shgp39/PMA driven tonsillar B cell proliferation was found to be 50 % inhibition.
